# Test results published in publication PMC4021819, “LIM homeodomain transcription factor Isl1 directs normal pyloric development by targeting Gata3”.
# T1: Isl1 C-terminal fragment (LIM domains removed) (UniProt P61372 134-349)
# T1 sequence: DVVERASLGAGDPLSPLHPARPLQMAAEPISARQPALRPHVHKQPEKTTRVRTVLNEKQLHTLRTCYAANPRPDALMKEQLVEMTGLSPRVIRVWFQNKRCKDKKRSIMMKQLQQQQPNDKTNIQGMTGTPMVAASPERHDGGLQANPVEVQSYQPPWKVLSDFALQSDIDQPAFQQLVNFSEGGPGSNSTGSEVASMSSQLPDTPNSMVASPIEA
# B1: Gata3-P1 number 3 mutant (dsDNA)
# DNA 1: CCTGGAGGGGCCTCGGCGATATTTTGTTTT
# DNA 2: AAAACAAAATATCGCCGAGGCCCCTCCAGG
# B2: Gata3-P1 number 1 mutant (dsDNA)
# DNA 1: GTCCTCTTTCCCACGGCCCCACTGTCAGTC
# DNA 2: GACTGACAGTGGGGCCGTGGGAAAGAGGAC
# B3: Gata3-P1 number 3 wild type (dsDNA)
# DNA 1: CCTGGAGGGGCCTATTAGATATTTTGTTTT
# DNA 2: AAAACAAAATATCTAATAGGCCCCTCCAGG
# B4: Gata3-P1 number 1 wild type (dsDNA)
# DNA 1: GTCCTCTTTCCCAATTACCCACTGTCAGTC
# DNA 2: GACTGACAGTGGGTAATTGGGAAAGAGGAC
# How the values were obtained:
# [1] = molecular target: T1, Isl1 C-terminal fragment (LIM domains …); test: competition; 100x unlabeled mutant vs site 3 probe; 40 mM KCl, 15 mM HEPES pH 7.9, 1 mM EDTA, 0.5 mM DTT, 5% glycerol, 50 ng/ul poly(dI-dC), 2 nM probe, 20 ul, room temperature 20 min; 6% native PAGE in 0.5x TBE; conditions: protein: ivt; blunt
# [2] = molecular target: T1, Isl1 C-terminal fragment (LIM domains …); test: competition; 100x unlabeled mutant vs site 1 probe; 40 mM KCl, 15 mM HEPES pH 7.9, 1 mM EDTA, 0.5 mM DTT, 5% glycerol, 50 ng/ul poly(dI-dC), 2 nM probe, 20 ul, room temperature 20 min; 6% native PAGE in 0.5x TBE; conditions: protein: ivt; blunt
# [3] = molecular target: T1, Isl1 C-terminal fragment (LIM domains …); test: EMSA; self-competed by 100x unlabeled; blocked by Isl1 antibody 40.2D6; 40 mM KCl, 15 mM HEPES pH 7.9, 1 mM EDTA, 0.5 mM DTT, 5% glycerol, 50 ng/ul poly(dI-dC), 2 nM probe, 20 ul, room temperature 20 min; 6% native PAGE in 0.5x TBE; conditions: protein: ivt; label: 5'-biotin (probe); blunt
Binder,binding result [3],other results
B1,–,binding result [1]: no binding
B2,–,binding result [2]: no binding
B3,binds,–
B4,binds,–
